Source: the nanobody polyreactivity screen of Harvey et al. (2022)

Test: yeast display, Sf9 membrane polyspecificity reagent, FACS + sequencing; frameworks hold sequencing errors
In short: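 Sorting gates, low and high (top ~1%), were placed on anti-HA fluorescence to track expression and on streptavidin fluorescence to track reagent binding. A clone's polyreactivity label is taken from the gate it came out of. The reagent was 10% biotinylated, detergent-solubilized Sf9 membrane, applied for 1 hour at 4 °C to galactose-induced yeast display cells.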

| Sequence | polyreactivity (PSR sort gate) |
| --- | --- |
| QVQLVESGGGLVQAGGSLRLSCAASGRIFGKNAMGWYRQAPGKERELVAAIRGNGGSTYYADSVKGRFTISRDNAKNTVYLQFNSLKPEDTAVYYCAARASAYFGRYYLYDYWGQGTQVTVSS | high polyreactivity |
| QVQLVESGGGLVQAGGSLRLSCAASGRIFGKYAMGWYRQAPGKERELVAAIRITGGSTYYADSVKGRFTISRDNAKNTVYLEMNSLKPEDTAVYYCAAVYLKTYYWGQGTQVTVSS | high polyreactivity |
| QVQLVESGGGLVQAGGSLRLSCAASGRIFGLYAMGWYRQAPGKERELVAAITRGGRTNYADSVKGRFTISRDNAKNTVYLQMNSLKPEDTAVYYCAADYRYTRGRRDYWGQGTQVTVSS | high polyreactivity |
| QVQLVESGGGLVQAGGSLRLSCAASGRIFGLYAMGWYRQATGKERELVAAISSSGGRTYYADSVKGRFTISRDNAKNTVYLQMNSLKPEDTAVYYCAAVYYYRRDGNGYWGQGTQVTVSS | high polyreactivity |
| QVQLVESGGGLVQAGGSLRLSCAASGRIFGLYAMGWYSQAPGKERELVAAISRGGGSTYYSDSVMGRFTISRDNAKNTVYLQMKSLKPEVTAVYYCATGLGYFSRLDYWGQGTQVTVSS | low polyreactivity |
| QVQLVESGGGLVQAGGSLRLSCAASGRIFGLYTMGWYRQAPGKERELVAAITSRGGRTYYADSVKGRFTLSRDNAKNSVYLQMNSLKPEDTAVYYCAAGGYWSLKYDYWGQGTQVTVSS | high polyreactivity |
| QVQLVESGGGLVQAGGSLRLSCAASGRIFGNNVMGWYRQAPGKERELVASINYSGRTYYADSVKGRFTISRDNAKNTVYLQMNSLKPEDTAVYYCAARRYAWFYPYVTYDYWGQGTQVNVSS | high polyreactivity |
| QVQLVESGGGLVQAGGSLRLSCAASGRIFGNNVMGWYRQEPGKERELVAAITFSGTSTYYADSVKGRFTISRDNAKNTVYLQMNSLKPEDTAVYYCAKYRYADYYSPGYDYWGQGTQVTVSS | low polyreactivity |
| QVQLVESGGGLVQAGGSLRLSCAASGRIFGNYAMGWYRQAPGKERELVAAISNGSGRTSYADSVKGRFTISRDNAKNTVYLQMNSLKPEDTAVYYCAVLRPKSRKHTVGFCYWGQGTQVTVSS | high polyreactivity |
| QVQLVESGGGLVQAGGSLRLSCAASGRIFGPYAMGWYRHAPGKERELVAAISSSGSTTYYADSVKGRFTISRDNAKNTVYLQMNSLKPEDTAVYYCAKPSSRDSPYDYWGQGTQVTVSS | low polyreactivity |
| QVQLVESGGGLVQAGGSLRLSCAASGRIFGPYAMGWYRPATGKERELVAAISSRGSSTYYADSVKGRFTISRDNAKNTVYLQMNSLKPEDTAVYYCAARDYLAYYWGPSLYTFDYWGQGTEVTVSS | high polyreactivity |
| QVQLVESGGGLVQAGGSLRLSCAASGRIFGPYAMGWYRQAPGKERELVAAISGRGSSTYYADSVKGRFTISRDNAKNTVYLQMNSLKPEDTAVYYCAKYPTYSYDYWGQGTQVTVSS | high polyreactivity |
| QVQLVESGGGLVQAGGSLRLSCAASGRIFGPYAMGWYRQAPGKERELVAASSTDYADSVKGRFTISRDNAKNTVYLQMNSLKPEDTAVYYCAKVGFGIPGGFYYWGQGTQVTVSS | low polyreactivity |
| QVQLVESGGGLVQAGGSLRLSCAASGRIFGPYTMGWYIQAPGKEREFVAAITRRGGTTYYADSVKGRFTISRDNAKNTVYLQMNSLKAEDTGVYYCDAVGQKRSLGYSWGQGTQVTVSS | low polyreactivity |
| QVQLVESGGGLVQAGGSLRLSCAASGRIFGPYVMGWYIQAPGKERELVAAISTSGTSTYYADSVKGRFTISRDNANNTVYLQMNSLKPEDTAVFYFAKRSGARHRLMDYWGQGTQVTVSS | low polyreactivity |
| QVQLVESGGGLVQAGGSLRLSCAASGRIFGQNAMGWYRQAPGKERELVAAITWNGGRTYYADSVKGRFTISRDNAKNTVYLQMNSLKPEDTAVYYCNADGKHRLRDYWGQGTQVTVSS | high polyreactivity |
| QVQLVESGGGLVQAGGSLRLSCAASGRIFGQNVIGWYRQAPGIERELVAAITSAGRTYYADSVKGRFTISRDNAKNPVYLQMNSLKPEDTAVYYCAAQYPINYFTGYGYWGQGTQVTVSS | high polyreactivity |
